Here are results for 13 molecules from patent US7291601B1, “Arginine-rich anti-vascular endothelial growth factor peptides that inhibit growth and metastasis of human tumor cells by blocking angiogenesis” (Korea Greencross Corp., priority 1999, dated 2007).

In assay [1] the test system is egg CAM (chorioallantoic membranes). Kind of assay: Egg CAM assay, angiogenesis induced by VEGF. The assay is classed as in vivo. As to the method:
Fertilized eggs (Pulmuwon, Korea) were incubated at 37° C. under a humidity of 90%. After three days of culturing, the eggs were deprived of about 2 ml of albumin. After four days, eggs were partially deprived of the sheath to make a window with a size of 2×2 cm.
After VEGF (10 ng/egg) was mixed with various amounts of peptides or other samples, 3 μl of each mixture was dropped onto ¼ fraction pieces of thermanox coverslips (Nunc) and dried. The pieces were placed on CAM of 9-day embryonic eggs.
Two days later, the samples were independently observed under anatomical microscopes by two different persons to determine whether new blood vessels are induced by the dropped samples or not. In this regard, the experiment was repeated at least three times using 10 or more eggs per sample and the results are given in Table 5, below.

Assay [2] concerns the target VEGF receptors present on the surface of HUVEC. Kind of assay: Binding of 125I-labeled VEGF165 to HUVEC, Scatchard analysis. More on the design: species or system human. As to the method: First, HUVEC (human umbilical vein endothelial cells) (Clonetics) were placed on gelatin-coated 100 mm dishes (Falcon) containing a vascular endothelial cell culture medium (Medium 199+20% BCS, 5 μg/ml of heparin, 6 μg/ml of endothelial cell growth supplement, 5 ng/ml of basic fibroblast growth factor) and cultured at 37° C. in a CO2 incubator for animal cell culture. After a certain period of time, the cells were treated with trypsin/EDTA. After centrifugation, the cells harvested were suspended in a fresh, vascular endothelial cells culture medium and aliquoted at a density of 5×10^4 cell/well to a 24 well plate (Costar Co.). […] Thereafter, to quantitatively determine the amount of the labeled VEGF which bound to receptors present on the surface of the vascular endothelial cells, the cells were treated with 0.5 ml of a lysis solution (20 mM Tris-HCl, pH 7.4/1% TritonX-100) for 20 min, followed by measuring the resulting lysate for radioactivity with the aid of a γ-counter. As for the non-specific binding, it was determined from a cell group cultured in the presence of a mixture of the labeled VEGF and non-labeled VEGF in a molar ratio of 1:100. […]
The measurement results are shown in FIGS. 1a and 1b in which radioactivity is plotted versus time and concentration, respectively.

Assay [3] relates to rabbit corneal domes. Kind of assay: Rabbit corneal dome angiogenesis induced by VEGF. Type of assay: in vivo. The settings on record: VEGF 10 ng with 1 μg peptide, 16 days after operation. As to the method:
To confirm the test results obtained from egg CAM, an experiment was performed using rabbit corneal domes for in vivo angiogenesis testing. New Zealand male rabbits weighing 3 kg (SLC, Japan) were subjected to intramuscular ketamine anesthesia (44 mg/kg), followed by dissecting the corneal domes to a length of 3 mm by use of an operating knife (Bard-Parker—#11). […] 16 days after the operation, angiogenesis was obviously observed and photographs were taken of blood vessels newly formed in the corneal dome (Nikon, FS-2, Japan).

Assay [4] deals with HM7 (human colon carcinoma cell line). Kind of assay: Subcutaneous HM7 tumor growth in athymic nude mice. The settings on record: after 15 days of subcutaneous injection. Type of assay: in vivo. The method, then:
From the next day, a solution of each peptide in PBS (0.5 μg/100 μl/day) was subcutaneously injected to the mice for 15 days. Sizes of the tumors thus formed were periodically measured while tumor volumes were calculated according to the following formula: Tumor Size=0.5×(Diameter)^2×length

Assay [5] shares this test system. Kind of assay: Liver metastasis of HM7 cells transplanted into the spleen of nude mice. The assay is classed as in vivo. The text has this: In order to conduct an experiment concerning the metastasis of cancer cells to the liver, cancerous cells were transplanted into the spleen. In this regard, after being anesthetized with diethyl ether, 4-week-old male mice (athymic nude mice, BALB/c/nu/nu, Charles River, Japan) underwent flank incision. […] Four weeks after the injection, the liver was excised from each mouse and measured for weight and the size and number of metastatic nodules formed. Each test group was composed of 6-7 mice. In a student's t-test, a p value less than 0.05 was regarded as being statistically significant. In the test using tetrazolium dye (cell titer 96 Non-radioactive Proliferation Assay Kit, Promega), each peptide was evaluated to have no influence on the growth of the cancer cells (5×10^3 cells/well), so that the possibility that the toxicity of the peptide themselves might inhibit the growth and metastasis of cancer cells could be excluded.

Assay [6] addresses T1, VEGF (Homo sapiens, UniProt P15692).
T1 sequence (P15692 27-191 isoform P15692-4): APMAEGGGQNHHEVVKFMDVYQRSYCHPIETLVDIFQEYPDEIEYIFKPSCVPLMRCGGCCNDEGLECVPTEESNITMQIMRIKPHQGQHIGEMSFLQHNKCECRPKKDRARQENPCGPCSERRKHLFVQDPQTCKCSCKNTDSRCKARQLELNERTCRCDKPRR
Kind of assay: Inhibition of 125I-labeled VEGF binding to its receptors on HUVEC. Conditions: 10 μM peptide (FIG. 6). The method, then:
Then, the cells were transferred to a medium (Medium 199/25 mM HEPES, pH 7.4/0.1% bovine serum albumin) containing 0.2 ng of ^125I-labeled VEGF and various concentrations of peptides or combinatorial peptide libraries and reacted at 4° C. for 3 hours. The cells were washed twice with the same medium and once with PBS containing 0.1% albumin to remove the labeled VEGF which still remained uncombined. Thereafter, to quantify the labeled VEGF which bound to receptors present on the surface of the vascular endothelial cells, the cells were treated with 0.5 ml of a lysis solution (20 mM Tris-HCl, pH 7.4/1% TritonX-100) for 20 min, followed by measuring the resulting lysate for radioactivity with the aid of a γ-counter.
The sequence of each peptide was indirectly decided through the analysis of amino acid compositions and its concentration was determined, after which 12 peptides were assayed for antagonism toward VEGF binding at various concentrations (1, 4, 10, and 20 μM/sequence).

Assay [7] deals with HT1080 (human fibrosarcoma). Kind of assay: Egg CAM assay, angiogenesis induced by VEGF-secreting cancer cells. The assay is classed as in vivo. The settings on record: egg CAM, 10^5 HT1080 cells/egg with 0.1 μg peptide; for Angiogenic activity(%): (standard deviation). The method, then: An experiment using egg CAM was carried out to confirm the inhibitory activity of the screened peptides against the angiogenesis induced by cancer cells, which secrete VEGF. Fertilized eggs were deprived of albumin and windows were formed on the eggs as in above. 10^5 cells of HT1080 (human fibrosarcoma) were mixed with 7.5 μg of Type I collagen (rat tail, Beckton Dickinson, USA) within a volume of 5 μl and dropped onto ¼ fraction pieces of Thermanox coverslips to give collagen sponges. After being covered with the collagen sponges, 10-day embryonic egg CAM was incubated at 37° C. for 3 days. Blood vessels induced by the cancer cells were observed and photographed as in above (see Table 6 and FIG. 12).

Assay [8] deals with VEGF receptors present on the surface of HUVEC (human umbilical vein endothelial cells) (human). Kind of assay: Scatchard analysis of 125I-VEGF165 binding to HUVEC; the kind of receptor at about 2,000 per cell.
Assay [9] addresses T2, VEGF (R&D systems), P15692.
T2 chain: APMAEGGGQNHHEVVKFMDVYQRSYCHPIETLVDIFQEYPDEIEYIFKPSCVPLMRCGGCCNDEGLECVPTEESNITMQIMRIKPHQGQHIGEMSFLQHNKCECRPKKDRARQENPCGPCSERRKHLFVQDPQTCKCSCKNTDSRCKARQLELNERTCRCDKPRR
Kind of assay: cell-based or functional assay.

Assay [10] deals with T3, VEGF secreted from HT1080 human fibrosarcoma cells (human), P15692.
T3 chain: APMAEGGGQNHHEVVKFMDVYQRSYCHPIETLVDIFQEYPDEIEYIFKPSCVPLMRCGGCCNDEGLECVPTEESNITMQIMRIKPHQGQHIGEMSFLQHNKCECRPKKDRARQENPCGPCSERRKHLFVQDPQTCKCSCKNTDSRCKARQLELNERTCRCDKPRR
Kind of assay: cell-based or functional assay.

The target of assay [11] is T4, ^125I-labeled VEGF165, P15692.
T4 chain: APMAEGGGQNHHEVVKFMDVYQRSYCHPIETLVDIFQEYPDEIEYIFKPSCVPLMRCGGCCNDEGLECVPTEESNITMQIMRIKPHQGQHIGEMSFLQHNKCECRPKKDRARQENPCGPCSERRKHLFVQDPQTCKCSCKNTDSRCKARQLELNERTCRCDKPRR
Kind of assay: inhibition of 125I-VEGF binding to its receptors on HUVEC, gamma counting.

For assay [12] the target is unchanged. Kind of assay: 125I-VEGF on plate-fixed peptide, competition; KD computed from the IC50.
The mark [13] stands for this setting: VEGF 10 ng/egg alone or with 1 μg sample.
The mark [14] stands for this setting: VEGF 10 ng/egg alone or with 1 μg sample, (standard deviation).

Values joined by “and” are separate entries in the source; they are usually repeats but may differ in a detail not shown here. Equal entries are not always repeated. “Also recorded” adds a separate entry of the source. Where two headings read alike, the source gives them in different places.

In the case of VEGF, the “Angiogenic activity eggs/total eggs” value in assay [1] (setting [13]) is on record as 9/27. Further, in [1] (setting [14]), the “Angiogenic activity(%)” value was 33.6% and 33.6(3.8) %.
With “^125I-labeled VEGF: radioactive iodine-labeled VEGF165 used as ligand”, the Kd (as a rule, the concentration at which binding is half-saturated) in assay [2] (receptor density about 2,000 per cell, read-out: dissociation constant (KD), first kind of receptor) was determined as 0.003 nM; in assay [2] (receptor density about 6,000 per cell, read-out: dissociation constant (KD), other kind of receptor) it was 0.05 nM.
As for “EEFDDA: control peptide of an amino acid sequence EEFDDA [reference compound]”, the “VEGF-induced angiogenesis in the rabbit corneal dome” value in assay [3] is listed as “had no influence on the VEGF-induced angiogenesis; also recorded: obvious angiogenesis”. Moreover, the “effect on tumor size / growth of human colon carcinoma cells in mice” value in assay [4] was “no effects”. The “metastasis of cancer cells versus tumor injected alone” value in assay [5] (mouse, in vivo) is “No difference in metastasis”.
As to protamine [reference compound], in [1] (setting [13]), the “Angiogenic activity eggs/total eggs” value was 5/26. For the same molecule, the “Angiogenic activity(%)” value in assay [1] (setting [14]) is 18.8(4.1) % and 18.4(4.1) %; in [1] (VEGF with protamine 50 μg/egg as stated in text), “about 18.8%”.
Turning to “KKKKKK: control peptide consisting of only lysine [reference compound]”, the “inhibition between labeled VEGF and its receptors” value in [6] was “no inhibition was observed”. The “Angiogenic activity eggs/total eggs” value in [1] (setting [13]) is recorded as 8/25; in [7], 14/22. The “Angiogenic activity(%)” value in [7] was 59.0(1.4) %; in [7] (listed as control peptide), 59%. Further, the “metastasis, % of the control group to which only PBS was injected” value in [5] (weak inhibitory activity, measure not specified) was “about 80%”.
“^125I-labeled VEGF165 (from UniProt P15692 27-191) (ligand)” yielded a Kd in assay [8] of 3 pM.

B1: peptide of sequence 3 (SEQ ID NO: 3) (NH2-Arg-Arg-Arg-Arg-Arg-Arg-CONH2) (peptide)
peptide: H-RRRRRR-NH2
Regarding B1, in assay [9], the Angiogenic activity(%), egg CAM, VEGF 10 ng + peptide 1 µg (VEGF alone 33.6, water 10.8) was determined as 15.6%. The Angiogenic activity(%), egg CAM, HT1080 cancer cells + peptide 0.1 µg (cancer cell alone 76.0, no treatment 18.5) in assay [10] came to 41%. Moreover, the IC50 (commonly the midpoint of a concentration-inhibition curve) in [11] is 3.8 µM. This molecule came in with a Kd in assay [12] of 22 µM.

B2: peptide of sequence 2 (SEQ ID NO: 2) (NH2-Arg-Lys-Lys-Arg-Lys-Arg-CONH2) (peptide)
peptide: H-RKKRKR-NH2
With B2, in [9], the Angiogenic activity(%), egg CAM, VEGF 10 ng + peptide 1 µg (VEGF alone 33.6, water 10.8) came out at 15.6%. The Angiogenic activity(%), egg CAM, HT1080 cancer cells + peptide 0.1 µg (cancer cell alone 76.0, no treatment 18.5) in assay [10] is 43%. Also, the IC50 in assay [11] was 3.4 µM. This molecule also came in with a Kd in assay [12] of 2 µM.

B3: peptide of sequence 1 (SEQ ID NO: 1) (NH2-Arg-Arg-Lys-Arg-Arg-Arg-CONH2) (peptide)
peptide: H-RRKRRR-NH2
Regarding B3, the Angiogenic activity(%), egg CAM, VEGF 10 ng + peptide 1 µg (VEGF alone 33.6, water 10.8) in [9] is 15.6%. The Angiogenic activity(%), egg CAM, HT1080 cancer cells + peptide 0.1 µg (cancer cell alone 76.0, no treatment 18.5) in assay [10] worked out at 36%. The IC50 in assay [11] came to 2 µM. Besides, in assay [12], the Kd is 5 µM.

B4: Table 4 peptide 7 (RKKRRR) (peptide)
peptide: RKKRRR
modifications: not checked
On to B4, for which, in [11], the IC50 was 6.5 µM.

B5: Table 4 peptide 10 (RKRRRR) (peptide)
peptide: RKRRRR
modifications: not checked
B5 displayed an IC50 in assay [11] of 7.8 µM. This IC50 and that of the molecule before are within 1.5-fold of each other.

B6: Table 4 peptide 2 (RRKRKR) (peptide)
peptide: RRKRKR
modifications: not checked
In assay [11], B6 showed an IC50 of 6 µM.

B7: Table 4 peptide 4 (RKRRKR) (peptide)
peptide: RKRRKR
modifications: not checked
Consider B7, for which the concentration for half-maximal inhibition (IC50) in assay [11] was 8.5 µM.
